By Km is commonly meant the substrate concentration at which the rate is half of its maximum. A word on the kcat: it is the number of substrate molecules converted per active site and unit of time at saturation. Usually kcat/Km stands for the second-order rate constant that governs catalysis at low substrate concentration.

This series concerns O=P(O)(O)OP(=O)(O)O. As to the kind of experiment: purified protein. The following applies: pH 9.0 (100 mM Tris-HCl; optimum pH), 5 mM MgSO4, 37 °C, 0.1 µM enzyme.

Excerpt: malachite green phosphate release, Michaelis-Menten fit on rEhHAPp49

Regarding “rEhHAPp49 (Entamoeba histolytica HM-1:IMSS)”, the Michaelis-Menten constant (Km) was 12 ± 2 µM, the kcat was found to be 0.177 ± 0.00333 s⁻¹ and the kcat/Km was determined as 14700 M⁻¹ s⁻¹.

The record behind these values is article PMC7926622, “Structure–Function Relationship Study of a Secretory Amoebic Phosphatase: A Computational-Experimental Approach” (International Journal of Molecular Sciences, 2021).
